{"source": "patent US6500934", "about": "(dated 2002)", "target": "bombesin receptor expressed in transfected Xenopus laevis melanophores (plasmid pJG3.6BR)", "test": "cell-based or functional assay", "note": "Non-standard residues stand in square brackets, D forms with d. No end group written: not given here. Ahx = NCCCCCC(=O)O", "data": [{"binder": "KKKKKKKKKKKKKKKKKKKK[Ahx]GGGQQRLGNQWAVGHLM-NH2 (ends and bridges not checked)", "note": "[Bombesin monomer (K(20)-εAhx-GGG-QQRLGNQWAVGHLM)]", "values": [{"measurement": "EC50 (t=30 min) of pigment dispersion in melanophores transfected with the bombesin receptor", "value": 110, "unit": "nM"}]}]}
